The target in data set [1] is PTDH-PCNA1_(G108C)-PdR (Pseudomonas stutzeri | Sulfolobus solfataricus | Pseudomonas putida). As to the kind of experiment: dynamic light scattering; diameters of the PTDH-fused proteins compared with their counterparts without PTDH fusion.
The target is the same in data set [2]. As to the kind of experiment: SEC; non-denatured fusion proteins, masses estimated against globular protein standards.
Data set [3] deals with PTDH-PCNA3_(R112C/T180C)-P450cam (Pseudomonas stutzeri | Sulfolobus solfataricus | Pseudomonas putida). As to the kind of experiment: dynamic light scattering; diameters of the PTDH-fused proteins compared with their counterparts without PTDH fusion.
The target is the same in data set [4]. Briefly: SEC; non-denatured fusion proteins, masses estimated against globular protein standards.
Data set [5] deals with the molecule itself. Described as above.

As to PTDH-PCNA1_(G108C)-PdR, the stoichiometry N in data set [1] and in data set [2] was 2 each time.

For PTDH-PCNA3_(R112C/T180C)-P450cam, the stoichiometry N in data set [3] and in data set [4] was 2 in each case.

B1: PTDH-PCNA2_(L171C)-PdX (other)
chain: MLPKLVITHRVHDEILQLLAPHCELMTNQTDSTLTREEILRRCRDAQAMMAFMPDRVDADFLQACPELRVVGCALKGFDNFDVDACTARGVWLTFVPDLLTVPTAELAIGLAVGLGRHLRAADAFVRSGEFQGWQPQFYGTGLDNATVGILGMGAIGLAMADRLQGWGATLQYHARKALDTQTEQRLGLRQVACSELFASSDFILLALPLNADTQHLVNAELLALVRPGALLVNPCRGSVVDEAAVLAALERGQLGGYAADVFEMEDWARADRPRLIDPALLAHPNTLFTPHIGSAVRAVRLEIERCAAQNIIQVLAGARPINAANRLPKAEPAACMKAKVIDAVSFSYILRTVGDFLSEANFIVTKEGIRVSGIDPSRVVFLDIFLPSSYFEGFEVSQEKEIIGFKLEDVNDILKRVLKDDTLILSSNESKLTLTFDGEFTRSFELPLIQVESTQPPSVNLEFPFKAQLLTITFADIIDELSDLGEVLNIHSKENKLYFEVIGDCSTAKVELSTDNGTLLEASGADVSSSYGMEYVANTTKMRRASDSMELYFGSQIPLKLRFKLPQEGYGDFYIAPRADSKVVYVSHDGTRRELDVADGVSLMQAAVSNGIYDIVGDCGGSASCATCHVYVNEAFTDKVPAANEREIGMLESVTAELKPNSRLSCQIIMTPELDGIVVDVPDRQW
Regarding B1, in data set [5], the stoichiometry N (commonly the number of molecules, sites or subunits per partner or assembly) is 2.
